Laboratory results as given in PMC10127586.
pKd: −log10 of the molar value.

Columns and labels:
Experiment in all cases: SPR
pPGT121 = molecular target: pPGT121
pPGT121-YTE = molecular target: pPGT121-YTE
pVRC07-523-LS = molecular target: pVRC07-523-LS
pPGT121-LS = molecular target: pPGT121-LS

Row | pKd (pPGT121) | pKd (pPGT121-YTE) | pKd (pVRC07-523-LS) | pKd (pPGT121-LS) | Substance
1 | < 4.70 | < 4.70 | < 4.70 | < 4.70 | Rhesus macaque FcγR IIIa-1 (from UniProt A3RFZ7 21-254) (receptor)
2 | < 4.70 | < 4.70 | < 4.70 | < 4.70 | Rhesus macaque FcγR IIIa-3 (from UniProt A3RFZ7 21-254) (receptor)
3 | < 4.70 | < 4.70 | < 4.70 | < 4.70 | Rhesus macaque FcγR IIa-2 (receptor)
4 | < 4.70 | < 4.70 | < 4.70 | < 4.70 | Rhesus macaque FcγR IIa-4 (receptor)
5 | < 4.70 | < 4.70 | < 4.70 | < 4.70 | Rhesus macaque FcγR IIb-1 (receptor)
